Measured values as given in PMC4775432 (2015).

Molecular target: T1, KRAS G12D peptide on HLA-A*11:01 (human)
T1 peptide: VVGADGVGK
Experiment: cytokine release

B1: TRAV4-4*01/BV12-2*01 (TCR)
alpha TRAV4-4/DV10*01 49*01 CDR3: CAADSSNTGYQNFYF
beta TRBV12-2*01 1-2*01 CDR3: CASSLTDPLDSDYTF
Does B1 bind?
Result: no recognition
